Measurements as given in patent US20240327534A1 (HARPOON THERAPEUTICS, published 2024).
Changes are numbered by the printed parent chain. Values belong to the binder of their own block, whether it stands above or below them.

Key:
[1] = molecular target: T1, human BCMA protein (human, UniProt Q02223 1-54, limits assumed); experiment: affinity to human BCMA protein, method not stated
T1 sequence: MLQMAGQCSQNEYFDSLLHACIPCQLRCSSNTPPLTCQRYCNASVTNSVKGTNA

[2] = molecular target: T2, human BCMA on BCMA expressing cell lines (human, UniProt Q02223 1-184); experiment: cell-based or functional assay
T2 sequence: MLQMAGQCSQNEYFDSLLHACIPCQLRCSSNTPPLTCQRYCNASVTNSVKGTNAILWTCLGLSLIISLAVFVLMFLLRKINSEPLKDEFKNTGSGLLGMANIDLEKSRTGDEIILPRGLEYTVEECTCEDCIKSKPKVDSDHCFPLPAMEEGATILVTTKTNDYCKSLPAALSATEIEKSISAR

B1: BCMA targeting trispecific protein 01G09 (other)
VHH: EVQLVESGGGLVQPGRSLTLSCAASTNIFNISPMGWYRQAPGKQRELVAAIHGFSTYYADSVKGRFTISRDNAKNSIYLQMNSLRPEDTALYYCNKVPWGRYHPRNVYWGQGTQVTVSS
notes: trispecific; not shown: anti-albumin domain, anti-CD3 domain and the linkers of the trispecific; the C-terminal His6 that follows them is left out
Kd [1]: 87.8 nM | TDCC EC50 (EJM cells) [2]: 0.441 nM

B2: BCMA targeting trispecific protein 02B01 (other, not shown: large carriers; small tags and cut ends)
VHH: B1 VHH with N30S, I31N, F54R, Y57L, R101D, Y108M
notes: trispecific
Kd [1]: 21.4 nM | TDCC EC50 (EJM cells) [2]: 0.0518 nM

B4: BCMA targeting trispecific protein 01H05 (other, not shown: large carriers; small tags and cut ends)
VHH: B1 VHH with N30S, S32T, F54T, Y57L
notes: trispecific
Kd [1]: 27.4 nM | TDCC EC50 (EJM cells) [2]: 0.0454 nM

B6: BCMA targeting trispecific protein 01H04 (other)
VHH: B1 VHH with N30S, I31K, F54Q, Y57L, R101D, Y108T
notes: trispecific; not shown: anti-albumin domain, anti-CD3 domain and the linkers of the trispecific (TriTAC) format
Kd [1]: 17.4 nM | TDCC EC50 (EJM cells) [2]: 0.0147 nM

B7: BCMA targeting trispecific protein 01H09 (other)
VHH: B1 VHH with F29M, N30S, F54N, Y57L, R101D, R105G
notes: trispecific; not shown: the C-terminal His6 follows those missing domains and is left out
Kd [1]: 5.44 nM | TDCC EC50 (EJM cells) [2]: 0.00221 nM

B8: BCMA targeting trispecific protein 01F08 (other)
VHH: B1 VHH with F29T, N30S, I31V, F54P, Y57L, R101D, R105T
notes: trispecific; not shown: the C-terminal 6xHis tag follows those domains and is left out
Kd [1]: 21.4 nM | TDCC EC50 (EJM cells) [2]: 0.0712 nM

B12: BCMA targeting trispecific protein 02B12 (other, not shown: large carriers; small tags and cut ends)
VHH: B1 VHH with F29S, N30S, S55D, Y57L, R101D
notes: trispecific
Kd [1]: 25.2 nM | TDCC EC50 (EJM cells) [2]: 0.124 nM

B13: BCMA targeting trispecific protein 01F03 (other)
VHH: B1 VHH with N30S, I31E, F54N, Y57L, R101T
notes: as for B8
Kd [1]: 15 nM | TDCC EC50 (EJM cells) [2]: 0.0764 nM

B14: BCMA targeting trispecific protein 01E08 (other, not shown: large carriers; small tags and cut ends)
VHH: B1 VHH with N30S, I31Q, F54D, Y57L, R101D, R105G, Y108C
notes: trispecific
Kd [1]: 5.56 nM | TDCC EC50 (EJM cells) [2]: 0.0015 nM

B15: BCMA targeting trispecific protein 01H10 (other)
VHH: B1 VHH with F29P, N30S, F54E, Y57L, R101D
notes: trispecific; not shown: The C-terminal 6xHis tag is left out because it follows these missing domains
Kd [1]: 24.8 nM | TDCC EC50 (EJM cells) [2]: 0.0352 nM

B16: BCMA targeting trispecific protein 02A07 (other, not shown: large carriers; small tags and cut ends)
VHH: B1 VHH with N30S, I31K, F54N, Y57L, R101D, N106E
notes: trispecific
Kd [1]: 18.4 nM | TDCC EC50 (EJM cells) [2]: 0.0279 nM

B18: BCMA targeting trispecific protein 02B04 (other)
VHH: B1 VHH with N30S, I31T, Y57I, R101D, R105L
notes: trispecific; not shown: the C-terminal 6xHis tag follows those missing domains and is left out
Kd [1]: 15.2 nM | TDCC EC50 (EJM cells) [2]: 0.0113 nM

B19: BCMA targeting trispecific protein 02A04 (other)
VHH: B1 VHH with N30S, I31Q, F54K, Y57L, R101D, R105S, Q111K
notes: as for B15
Kd [1]: 17.6 nM | TDCC EC50 (EJM cells) [2]: 0.0382 nM

B22: BCMA targeting trispecific protein 02A05 (other, not shown: large carriers; small tags and cut ends)
VHH: B1 VHH with F29A, N30S, F54K, Y57L, R101D, R105G
notes: trispecific
Kd [1]: 7.06 nM | TDCC EC50 (EJM cells) [2]: 0.00421 nM

B23: BCMA targeting trispecific protein 02C03 (other)
VHH: B1 VHH with F29A, N30S, F54S, Y57L, R101D, R105G
notes: as for B7
Kd [1]: 7.09 nM | TDCC EC50 (EJM cells) [2]: 0.00252 nM

B24: BCMA targeting trispecific protein 02A08 (other, not shown: large carriers; small tags and cut ends)
VHH: B1 VHH with N30S, I31R, F54E, Y57L, R105G
notes: trispecific
Kd [1]: 9.51 nM | TDCC EC50 (EJM cells) [2]: 0.0201 nM

Second part, the binder after the results:

Kd [1]: 15.6 nM | TDCC EC50 (EJM cells) [2]: 0.0162 nM
B3: BCMA targeting trispecific protein 02C05 (other)
VHH: B1 VHH with N30S, I31E, S55T, Y57L, R101D, Y108T
notes: trispecific; not shown: anti-albumin domain, anti-CD3 domain and the linkers of the trispecific (TriTAC) chain; the C-terminal 6xHis tag follows these missing domains and is left out

Kd [1]: 25.7 nM | TDCC EC50 (EJM cells) [2]: 0.0245 nM
B5: BCMA targeting trispecific protein 02F03 (other, not shown: large carriers; small tags and cut ends)
VHH: B1 VHH with N30S, S32Y, F54S, Y57L, R101D, R105K
notes: trispecific

Kd [1]: 7.15 nM | TDCC EC50 (EJM cells) [2]: 0.003 nM
B9: BCMA targeting trispecific protein 02F05 (other, not shown: large carriers; small tags and cut ends)
VHH: B1 VHH with N30S, I31V, F54N, Y57L, R101K
notes: trispecific

Kd [1]: 16.8 nM | TDCC EC50 (EJM cells) [2]: 0.0165 nM
B10: BCMA targeting trispecific protein 02E03 (other)
VHH: B1 VHH with N30S, I31N, F54P, Y57L, R101D, Y108T
notes: as for B3

Kd [1]: 7.06 nM | TDCC EC50 (EJM cells) [2]: 0.00259 nM
B11: BCMA targeting trispecific protein 02F07 (other)
VHH: B1 VHH with F29E, N30S, Y57L, R101D, R105G
notes: as for B7

Kd [1]: 7.76 nM | TDCC EC50 (EJM cells) [2]: 0.00314 nM
B17: BCMA targeting trispecific protein 02F12 (other, not shown: large carriers; small tags and cut ends)
VHH: B1 VHH with F29E, N30S, F54T, Y57L, R101D, R105G
notes: trispecific

Kd [1]: 16.3 nM | TDCC EC50 (EJM cells) [2]: 0.0108 nM
B20: BCMA targeting trispecific protein 02G01 (other)
VHH: B1 VHH with N30S, S32N, S55D, Y57L, R101D, Y108S
notes: as for B18

Kd [1]: 21.9 nM | TDCC EC50 (EJM cells) [2]: 0.0193 nM
B21: BCMA targeting trispecific protein 02F06 (other, not shown: large carriers; small tags and cut ends)
VHH: B1 VHH with N30S, S32T, F54E, Y57L
notes: trispecific

Kd [1]: 20.9 nM | TDCC EC50 (EJM cells) [2]: 0.0311 nM
B25: BCMA targeting trispecific protein 02E09 (other, not shown: large carriers; small tags and cut ends)
VHH: B1 VHH with I28D, N30S, F54G, Y57L, R101D, Y108A
notes: trispecific
